The target of test [1] is HLA-B*3501 (human). As to conditions: remark: other sources report otherwise.
The target of test [2] is HLA-B*3501 (human). The conditions noted are these: remark: other sources report otherwise. The source holds these as a separate data set.

Some results are limits rather than exact numbers.

B1: MAGE-A3 peptide 168-176 … (peptide)
peptide: EVDPIGHLY
B1: the RA (relative affinity) in the test with HLA-B*3501 (human) [1] turned out to be 2.3. The Stability (half-life of the peptide on HLA-B*35) in the test with HLA-B*3501 (human) [2] is over 6 h.

The values are drawn from patent US20060122119A1, “Peptides for use in antitumor immunotherapy” (Institut Nat'l De La Sante Et De La Recherche Med., priority 2002, published 2006).
